Experimental findings from IntAct's records for PubMed 24583011 are described below.

Assay [1] deals with T1, sv2c_rat Sv2c (UniProt Q9Z2I6).
T1 sequence: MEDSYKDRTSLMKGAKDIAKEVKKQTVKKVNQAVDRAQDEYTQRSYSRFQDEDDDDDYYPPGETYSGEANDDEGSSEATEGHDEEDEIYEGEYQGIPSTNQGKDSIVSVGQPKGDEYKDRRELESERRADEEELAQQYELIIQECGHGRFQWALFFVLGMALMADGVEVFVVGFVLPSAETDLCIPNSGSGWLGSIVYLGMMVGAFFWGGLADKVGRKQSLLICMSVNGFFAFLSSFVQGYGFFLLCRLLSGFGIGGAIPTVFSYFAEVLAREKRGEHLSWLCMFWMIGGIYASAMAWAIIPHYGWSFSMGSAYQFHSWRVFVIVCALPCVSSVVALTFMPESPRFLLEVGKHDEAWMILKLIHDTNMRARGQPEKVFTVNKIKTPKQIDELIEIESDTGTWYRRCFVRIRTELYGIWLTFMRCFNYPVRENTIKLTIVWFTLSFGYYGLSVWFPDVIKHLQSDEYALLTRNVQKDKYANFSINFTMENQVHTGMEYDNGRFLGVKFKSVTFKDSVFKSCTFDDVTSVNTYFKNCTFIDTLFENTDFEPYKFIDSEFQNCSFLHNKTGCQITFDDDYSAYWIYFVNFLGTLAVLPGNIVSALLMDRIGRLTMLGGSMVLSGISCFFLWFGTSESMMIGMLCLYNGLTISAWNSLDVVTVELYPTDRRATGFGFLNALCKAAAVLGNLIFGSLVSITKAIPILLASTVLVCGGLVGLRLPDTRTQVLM

The target in assay [2] is T1, sv2c_rat Sv2c. This is another data set of the same source.
For assay [3], the target named is T1, sv2c_rat Sv2c. This is another data set of the same source.
The target in assay [4] is T1, sv2c_rat Sv2c. This is another data set of the same source.
Assay [5] has as its target T1, sv2c_rat Sv2c. This is another data set of the same source.
Assay [6] concerns the target T1, sv2c_rat Sv2c. This is another data set of the same source.
In assay [7] the target is T1, sv2c_rat Sv2c. This is another data set of the same source.
In assay [8] the target is T1, sv2c_rat Sv2c. This is another data set of the same source.
Assay [9] concerns the target T1, sv2c_rat Sv2c. The source holds these as a separate data set.
For assay [10], the target named is T1, sv2c_rat Sv2c. The source holds these as a separate data set.

On to “Botulinum neurotoxin type A (Clostridium botulinum) (from UniProt P0DPI0) R1131E”, for which the “effect of a mutation on the interaction” value with sv2c_rat Sv2c [1] is “decreasing interaction”.

Regarding “Botulinum neurotoxin type A (Clostridium botulinum) (from UniProt P0DPI0) H1064G”, the “effect of a mutation on the interaction” value with sv2c_rat Sv2c [2] is listed as “decreasing interaction”.

“Botulinum neurotoxin type A (Clostridium botulinum) (from UniProt P0DPI0) V1287E”: in the assay with sv2c_rat Sv2c [3], the “effect of a mutation on the interaction” value is “decreasing interaction”.

Take “Botulinum neurotoxin type A (Clostridium botulinum) (from UniProt P0DPI0) N905Y”: in the assay with sv2c_rat Sv2c [4], the “effect of a mutation on the interaction” value is listed as “decreasing interaction”.

For “Botulinum neurotoxin type A (Clostridium botulinum) (from UniProt P0DPI0) K1163E”, the “effect of a mutation on the interaction” value in the assay with sv2c_rat Sv2c [5] is listed as “decreasing interaction”.

For the substance “Botulinum neurotoxin type A (Clostridium botulinum) (from UniProt P0DPI0) R1156M”, in the assay with sv2c_rat Sv2c [6], the “effect of a mutation on the interaction” value is listed as “decreasing interaction”.

Turning to “Botulinum neurotoxin type A (Clostridium botulinum) (from UniProt P0DPI0) N1188A”, the “effect of a mutation on the interaction” value with sv2c_rat Sv2c [7] is “decreasing interaction”.

Take “Botulinum neurotoxin type A (Clostridium botulinum) (from UniProt P0DPI0) T1063P”: in the assay with sv2c_rat Sv2c [8], the “effect of a mutation on the interaction” value is recorded as “decreasing interaction”.

For “Botulinum neurotoxin type A (Clostridium botulinum) (from UniProt P0DPI0) D1108R”, in the assay with sv2c_rat Sv2c [9], the “effect of a mutation on the interaction” value is on record as “decreasing interaction”.

With “Botulinum neurotoxin type A (Clostridium botulinum) (from UniProt P0DPI0) G1292R”, the “effect of a mutation on the interaction” value in the assay with sv2c_rat Sv2c [10] is reported as “decreasing interaction”.
